Data on five molecules can be found in US20220064316A1 (published 2022).

Assay [1] has as its target T1, BCMA-Fc antigen (R&D Systems) (UniProt Q02223 1-54).
T1 construct: also called BCMA fc fusion protein (R&D Systems, cat #193-BC-050); recombinant BCMA-Fc; not shown: Fc portion of the bought fusion protein
T1 sequence (looked up): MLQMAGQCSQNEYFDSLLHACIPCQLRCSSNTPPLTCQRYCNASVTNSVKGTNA
Briefly: flow cytometry; BCMA-Fc staining of CAR-transduced JNL cells. Here is the method:
Jurkat-NFAT-luciferase (JNL) cells transduced with BCMA CAR constructs were evaluated for activation in response to BCMA-expressing target cell lines. Small-scale viral supernatant samples were generated in HEK293T cells for transduction of JNL cells. On Day 3 following transduction, BCMA CAR-transduced JNL cells were incubated with target cells at an effector-to-target (E:T) ratio of 6:1. Target cell lines were: K562-BCMA (engineered to stably express BCMA), K562 (parental line), and BCMA positive multiple myeloma cell lines, NCI-H929 and RPMI 8226. JNL activation was measured using Bright-Glo substrate (Promega) on Day 4. CAR expression on transduced JNL was assessed on Day 7 with BCMA-Fc antigen and Biotin-Protein L reagent (Table 21).

The target in assay [2] is T2, human BCMA (B-cell maturation antigen) on cells (human, UniProt Q02223 1-184).
T2 sequence (looked up): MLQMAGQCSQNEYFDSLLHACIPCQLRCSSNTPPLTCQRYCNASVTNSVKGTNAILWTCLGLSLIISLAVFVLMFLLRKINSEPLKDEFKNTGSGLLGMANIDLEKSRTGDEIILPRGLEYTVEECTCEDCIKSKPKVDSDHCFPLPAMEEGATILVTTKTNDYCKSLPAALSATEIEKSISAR
Briefly: cell-based or functional assay.

B1: BCMA-12 CAR (139111) (other)
chain: EVQLLESGGGLVQPGGSLRLSCAVSGFALSNHGMSWVRRAPGKGLEWVSGIVYSGSTYYAASVKGRFTISRDNSRNTLYLQMNSLRPEDTAIYYCSAHGGESDVWGQGTTVTVSSASGGGGSGGRASGGGGSDIVMTQTPLSLSVTPGQPASISCKSSQSLLRNDGKTPLYWYLQKAGQPPQLLIYEVSNRFSGVPDRFSGSGSGTDFTLKISRVEAEDVGAYYCMQNIQFPSFGGGTKLEIKTTTPAPRPPTPAPTIASQPLSLRPEACRPAAGGAVHTRGLDFACDIYIWAPLAGTCGVLLLSLVITLYCKRGRKKLLYIFKQPFMRPVQTTQEEDGCSCRFPEEEEGGCELRVKFSRSADAPAYKQGQNQLYNELNLGRREEYDVLDKRRGRDPEMGGKPRRKNPQEGLYNELQKDKMAEAYSEIGMKGERRRGKGHDGLYQGLSTATKDTYDALHMQALPPR
notes: also called HU13-58ZB
For the molecule B1, the “% CAR+ (BCMA-Fc detection)” value in assay [1] was determined as 23.4%. Moreover, in assay [2], the “JNL binding assay, ratio to K562; K562-BCMA” value was found to be 3.17 ratio; the “JNL binding assay, ratio to K562; NCI-H929” value was determined as 2.78 ratio; the “JNL binding assay, ratio to K562; RPMI 8226” value stood at 3.36 ratio; the “Proliferation CD3, ratio to no target; K562-BCMA” value stood at 2.9 ratio. Moreover, in assay [2], the “Proliferation CD3, ratio to no target; KMS11-luc” value was 2.76 ratio; the “Proliferation CD3, ratio to no target; NCI-H929” value was 2.98 ratio; the “Proliferation CD3, ratio to no target; RPMI 8226” value came out at 3.27 ratio; the “Proliferation CD4, ratio to no target; K562-BCMA” value amounted to 3.42 ratio. For the same molecule, in assay [2], the “Proliferation CD4, ratio to no target; KMS11-luc” value worked out at 2.94 ratio; the “Proliferation CD4, ratio to no target; NCI-H929” value came to 3.41 ratio; the “Proliferation CD4, ratio to no target; RPMI 8226” value is 3.66 ratio; the “Proliferation CD8, ratio to no target; K562-BCMA” value turned out to be 1.51 ratio. Also, in assay [2], the “Proliferation CD8, ratio to no target; KMS11-luc” value is 2.11 ratio; the “Proliferation CD8, ratio to no target; NCI-H929” value was 1.76 ratio; the “Proliferation CD8, ratio to no target; RPMI 8226” value stood at 2.12 ratio.

B2: BCMA-13 CAR (139112) (other)
chain: QVQLVESGGGLVQPGGSLRLSCAVSGFALSNHGMSWVRRAPGKGLEWVSGIVYSGSTYYAASVKGRFTISRDNSRNTLYLQMNSLRPEDTAIYYCSAHGGESDVWGQGTTVTVSSASGGGGSGGRASGGGGSDIRLTQSPSPLSASVGDRVTITCQASEDINKFLNWYHQTPGKAPKLLIYDASTLQTGVPSRFSGSGSGTDFTLTINSLQPEDIGTYYCQQYESLPLTFGGGTKVEIKTTTPAPRPPTPAPTIASQPLSLRPEACRPAAGGAVHTRGLDFACDIYIWAPLAGTCGVLLLSLVITLYCKRGRKKLLYIFKQPFMRPVQTTQEEDGCSCRFPEEEEGGCELRVKFSRSADAPAYKQGQNQLYNELNLGRREEYDVLDKRRGRDPEMGGKPRRKNPQEGLYNELQKDKMAEAYSEIGMKGERRRGKGHDGLYQGLSTATKDTYDALHMQALPPR
notes: also called B13; KG66-98AB
With B2, the “% CAR+ (BCMA-Fc detection)” value in assay [1] turned out to be 32.7%. Moreover, in assay [2], the “JNL binding assay, ratio to K562; K562-BCMA” value amounted to 3.74 ratio; the “JNL binding assay, ratio to K562; NCI-H929” value came out at 2.68 ratio; the “JNL binding assay, ratio to K562; RPMI 8226” value came out at 3.66 ratio; the “Proliferation CD3, ratio to no target; K562-BCMA” value stood at 3.47 ratio. In assay [2], the “Proliferation CD3, ratio to no target; KMS11-luc” value is 3.2 ratio; the “Proliferation CD3, ratio to no target; NCI-H929” value was determined as 3.46 ratio; the “Proliferation CD3, ratio to no target; RPMI 8226” value was found to be 3.48 ratio; the “Proliferation CD4, ratio to no target; K562-BCMA” value stood at 5.4 ratio. Moreover, in assay [2], the “Proliferation CD4, ratio to no target; KMS11-luc” value worked out at 3.84 ratio; the “Proliferation CD4, ratio to no target; NCI-H929” value is 5.05 ratio; the “Proliferation CD4, ratio to no target; RPMI 8226” value stood at 4.44 ratio; the “Proliferation CD8, ratio to no target; K562-BCMA” value was found to be 2.34 ratio. In addition, in assay [2], the “Proliferation CD8, ratio to no target; KMS11-luc” value was 2.79 ratio; the “Proliferation CD8, ratio to no target; NCI-H929” value amounted to 2.53 ratio; the “Proliferation CD8, ratio to no target; RPMI 8226” value was 2.86 ratio.

B3: BCMA-9 CAR (139108) (other)
chain: QVQLVESGGGLVKPGGSLRLSCAASGFTFSDYYMSWIRQAPGKGLEWVSYISSSGSTIYYADSVKGRFTISRDNAKNSLYLQMNSLRAEDTAVYYCARESGDGMDVWGQGTTVTVSSASGGGGSGGRASGGGGSDIQMTQSPSSLSASVGDRVTITCRASQSISSYLNWYQQKPGKAPKLLIYAASSLQSGVPSRFSGSGSGTDFTLTISSLQPEDFATYYCQQSYTLAFGQGTKVDIKTTTPAPRPPTPAPTIASQPLSLRPEACRPAAGGAVHTRGLDFACDIYIWAPLAGTCGVLLLSLVITLYCKRGRKKLLYIFKQPFMRPVQTTQEEDGCSCRFPEEEEGGCELRVKFSRSADAPAYKQGQNQLYNELNLGRREEYDVLDKRRGRDPEMGGKPRRKNPQEGLYNELQKDKMAEAYSEIGMKGERRRGKGHDGLYQGLSTATKDTYDALHMQALPPR
notes: also called OG62-93QB
In the case of B3, the “% CAR+ (BCMA-Fc detection)” value in assay [1] is 54.7%. In addition, in assay [2], the “JNL binding assay, ratio to K562; K562-BCMA” value came out at 1.59 ratio; the “JNL binding assay, ratio to K562; NCI-H929” value came out at 1.99 ratio; the “JNL binding assay, ratio to K562; RPMI 8226” value came to 1.54 ratio; the “Proliferation CD3, ratio to no target; K562-BCMA” value came to 1.51 ratio. Moreover, in assay [2], the “Proliferation CD3, ratio to no target; KMS11-luc” value stood at 1.66 ratio; the “Proliferation CD3, ratio to no target; NCI-H929” value came to 4.63 ratio; the “Proliferation CD3, ratio to no target; RPMI 8226” value is 2.5 ratio; the “Proliferation CD4, ratio to no target; K562-BCMA” value came to 1.59 ratio. In assay [2], the “Proliferation CD4, ratio to no target; KMS11-luc” value turned out to be 1.49 ratio; the “Proliferation CD4, ratio to no target; NCI-H929” value came out at 4.45 ratio; the “Proliferation CD4, ratio to no target; RPMI 8226” value is 2.24 ratio; the “Proliferation CD8, ratio to no target; K562-BCMA” value was found to be 1.43 ratio. Also, in assay [2], the “Proliferation CD8, ratio to no target; KMS11-luc” value came out at 1.83 ratio; the “Proliferation CD8, ratio to no target; NCI-H929” value is 4.79 ratio; the “Proliferation CD8, ratio to no target; RPMI 8226” value worked out at 2.76 ratio.

B4: BCMA-7 CAR (139106) (other)
chain: EVQLVETGGGLVQPGGSLRLSCAVSGFALSNHGMSWVRRAPGKGLEWVSGIVYSGSTYYAASVKGRFTISRDNSRNTLYLQMNSLRPEDTAIYYCSAHGGESDVWGQGTTVTVSSASGGGGSGGRASGGGGSEIVMTQSPATLSVSPGERATLSCRASQSVSSKLAWYQQKPGQAPRLLMYGASIRATGIPDRFSGSGSGTEFTLTISSLEPEDFAVYYCQQYGSSSWTFGQGTKVEIKTTTPAPRPPTPAPTIASQPLSLRPEACRPAAGGAVHTRGLDFACDIYIWAPLAGTCGVLLLSLVITLYCKRGRKKLLYIFKQPFMRPVQTTQEEDGCSCRFPEEEEGGCELRVKFSRSADAPAYKQGQNQLYNELNLGRREEYDVLDKRRGRDPEMGGKPRRKNPQEGLYNELQKDKMAEAYSEIGMKGERRRGKGHDGLYQGLSTATKDTYDALHMQALPPR
notes: also called QR91-12ZA
Consider B4, for which the “% CAR+ (BCMA-Fc detection)” value in assay [1] came to 30.4%. Moreover, in assay [2], the “JNL binding assay, ratio to K562; K562-BCMA” value worked out at 2.55 ratio; the “JNL binding assay, ratio to K562; NCI-H929” value came to 2.36 ratio; the “JNL binding assay, ratio to K562; RPMI 8226” value came out at 2.77 ratio; the “Proliferation CD3, ratio to no target; K562-BCMA” value was determined as 1.72 ratio. Also, in assay [2], the “Proliferation CD3, ratio to no target; KMS11-luc” value is 1.71 ratio; the “Proliferation CD3, ratio to no target; NCI-H929” value worked out at 1.8 ratio; the “Proliferation CD3, ratio to no target; RPMI 8226” value is 1.62 ratio; the “Proliferation CD4, ratio to no target; K562-BCMA” value is 2.17 ratio. Besides, in assay [2], the “Proliferation CD4, ratio to no target; KMS11-luc” value is 1.96 ratio; the “Proliferation CD4, ratio to no target; NCI-H929” value is 2.23 ratio; the “Proliferation CD4, ratio to no target; RPMI 8226” value worked out at 1.91 ratio; the “Proliferation CD8, ratio to no target; K562-BCMA” value is 1.08 ratio. In assay [2], the “Proliferation CD8, ratio to no target; KMS11-luc” value turned out to be 1.35 ratio; the “Proliferation CD8, ratio to no target; NCI-H929” value was 1.18 ratio; the “Proliferation CD8, ratio to no target; RPMI 8226” value worked out at 1.19 ratio.

B5: BCMA-14 CAR (139113) (other)
chain: EVQLVETGGGLVQPGGSLRLSCAVSGFALSNHGMSWVRRAPGKGLEWVSGIVYSGSTYYAASVKGRFTISRDNSRNTLYLQMNSLRPEDTAIYYCSAHGGESDVWGQGTTVTVSSASGGGGSGGRASGGGGSETTLTQSPATLSVSPGERATLSCRASQSVGSNLAWYQQKPGQGPRLLIYGASTRATGIPARFSGSGSGTEFTLTISSLQPEDFAVYYCQQYNDWLPVTFGQGTKVEIKTTTPAPRPPTPAPTIASQPLSLRPEACRPAAGGAVHTRGLDFACDIYIWAPLAGTCGVLLLSLVITLYCKRGRKKLLYIFKQPFMRPVQTTQEEDGCSCRFPEEEEGGCELRVKFSRSADAPAYKQGQNQLYNELNLGRREEYDVLDKRRGRDPEMGGKPRRKNPQEGLYNELQKDKMAEAYSEIGMKGERRRGKGHDGLYQGLSTATKDTYDALHMQALPPR
notes: also called HJ64-62PB
As for B5, the “% CAR+ (BCMA-Fc detection)” value in assay [1] came to 31.8%. Besides, in assay [2], the “JNL binding assay, ratio to K562; K562-BCMA” value was 2.81 ratio; the “JNL binding assay, ratio to K562; NCI-H929” value was determined as 2.65 ratio; the “JNL binding assay, ratio to K562; RPMI 8226” value stood at 3.31 ratio; the “Proliferation CD3, ratio to no target; K562-BCMA” value is 4.12 ratio. Besides, in assay [2], the “Proliferation CD3, ratio to no target; KMS11-luc” value stood at 3.42 ratio; the “Proliferation CD3, ratio to no target; NCI-H929” value worked out at 3.86 ratio; the “Proliferation CD3, ratio to no target; RPMI 8226” value came out at 3.93 ratio; the “Proliferation CD4, ratio to no target; K562-BCMA” value is 5.73 ratio. In addition, in assay [2], the “Proliferation CD4, ratio to no target; KMS11-luc” value is 3.97 ratio; the “Proliferation CD4, ratio to no target; NCI-H929” value is 5.07 ratio; the “Proliferation CD4, ratio to no target; RPMI 8226” value was 4.84 ratio; the “Proliferation CD8, ratio to no target; K562-BCMA” value worked out at 2.65 ratio. In assay [2], the “Proliferation CD8, ratio to no target; KMS11-luc” value is 2.83 ratio; the “Proliferation CD8, ratio to no target; NCI-H929” value stood at 2.73 ratio; the “Proliferation CD8, ratio to no target; RPMI 8226” value amounted to 3.03 ratio.
